Targets include CARD14, Q9BXL6; CNKSR3, Q6P9H4; GRIP2_2, Q9C0E4; MAGIX, Q9H6Y5; PARD3B_3, Q8TEW8; RIMS2, Q9UQ26; SCRIB_4, Q14160.
What all share (experiment): holdup assay
Set-up in all cases: key: below the threshold = too weak to quantify, mostly under pKd 3.1 to 4
Settings in all cases: plain residues with an end cap or a label only (N-terminal biotin on a linker: ttds)

The next assay concerns the target T1, APBA3_2, O96018.
T1 sequence (O96018 480-570, limits assumed, looked up): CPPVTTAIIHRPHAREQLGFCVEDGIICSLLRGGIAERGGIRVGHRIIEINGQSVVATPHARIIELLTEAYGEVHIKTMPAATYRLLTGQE

The target in a further assay is T2, GIPC1, O14908.
T2 sequence (O14908 128-223, limits assumed, looked up): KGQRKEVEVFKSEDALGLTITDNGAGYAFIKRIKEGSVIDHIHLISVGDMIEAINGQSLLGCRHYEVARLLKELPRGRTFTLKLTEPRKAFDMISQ

The target of a further assay is T3, MLLT4, P55196.
T3 sequence (P55196 1002-1103, limits assumed, looked up): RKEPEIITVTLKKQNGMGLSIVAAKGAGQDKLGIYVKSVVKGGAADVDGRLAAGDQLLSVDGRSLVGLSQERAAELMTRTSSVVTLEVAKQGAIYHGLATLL

The target in the next assay is T4, MPDZ_3, O75970.
T4 sequence (O75970 372-473, limits assumed, looked up): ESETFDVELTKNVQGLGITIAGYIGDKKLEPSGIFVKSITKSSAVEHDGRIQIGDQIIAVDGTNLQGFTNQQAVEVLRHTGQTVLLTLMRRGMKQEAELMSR

The target in another assay is T5, NHERF3_2, Q5T2W1.
T5 sequence (Q5T2W1 129-225, limits assumed, looked up): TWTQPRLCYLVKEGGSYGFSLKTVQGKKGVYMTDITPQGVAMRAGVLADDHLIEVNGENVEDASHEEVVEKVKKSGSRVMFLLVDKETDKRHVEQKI

A further assay concerns the target T6, PDZD11, Q5EBL8.
T6 sequence (Q5EBL8 42-139, limits assumed, looked up): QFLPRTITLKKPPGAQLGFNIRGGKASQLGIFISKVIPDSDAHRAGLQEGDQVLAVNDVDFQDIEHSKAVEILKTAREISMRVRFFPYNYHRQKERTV

The next assay concerns the target T7, PDZD2_3, O15018.
T7 sequence (O15018 581-682, limits assumed, looked up): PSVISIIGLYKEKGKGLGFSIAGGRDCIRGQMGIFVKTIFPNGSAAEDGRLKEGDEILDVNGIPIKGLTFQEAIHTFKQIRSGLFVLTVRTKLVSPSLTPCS

A further assay has as its target T8, PDZD2_5, O15018.
T8 sequence (O15018 2617-2716, limits assumed, looked up): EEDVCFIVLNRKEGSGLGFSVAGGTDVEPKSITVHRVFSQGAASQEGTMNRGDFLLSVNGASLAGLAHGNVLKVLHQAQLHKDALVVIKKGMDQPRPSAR

For another assay, the target named is T9, PDZD4, Q76G19.
T9 sequence (Q76G19 125-224, limits assumed, looked up): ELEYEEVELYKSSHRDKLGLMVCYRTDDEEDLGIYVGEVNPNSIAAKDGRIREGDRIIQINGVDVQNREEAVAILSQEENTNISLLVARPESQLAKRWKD

The target of a further assay is T10, PDZD8, Q8NEN9.
T10 sequence (Q8NEN9 361-459, limits assumed, looked up): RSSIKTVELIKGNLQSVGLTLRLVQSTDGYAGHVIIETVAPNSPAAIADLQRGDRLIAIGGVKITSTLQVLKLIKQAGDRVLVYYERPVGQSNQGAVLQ

Another assay has as its target T11, PREX2_2, Q70Z35.
T11 sequence (Q70Z35 672-764, limits assumed, looked up): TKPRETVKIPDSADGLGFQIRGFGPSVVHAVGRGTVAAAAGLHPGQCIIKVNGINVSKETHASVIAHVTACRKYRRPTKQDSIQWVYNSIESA

Another assay deals with T12, SHANK3, Q9BYB0.
T12 sequence (Q9BYB0 641-750, limits assumed, looked up): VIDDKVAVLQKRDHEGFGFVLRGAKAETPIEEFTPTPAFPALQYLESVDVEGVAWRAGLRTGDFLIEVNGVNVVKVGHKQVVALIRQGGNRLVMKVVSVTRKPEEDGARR

A further assay deals with T13, TJP3_1, O95049.
T13 sequence (O95049 6-103, limits assumed, looked up): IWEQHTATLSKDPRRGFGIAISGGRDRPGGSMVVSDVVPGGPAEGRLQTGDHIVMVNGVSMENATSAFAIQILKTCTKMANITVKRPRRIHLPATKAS

Another assay concerns the target T14, USH1C_1, Q9Y6N9.
T14 sequence (Q9Y6N9 82-179, limits assumed, looked up): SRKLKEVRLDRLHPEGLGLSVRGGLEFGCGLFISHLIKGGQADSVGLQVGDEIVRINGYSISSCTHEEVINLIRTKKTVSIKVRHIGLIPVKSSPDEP

The target of the next assay is T15, USH1C_2, Q9Y6N9.
T15 sequence (Q9Y6N9 206-303, limits assumed, looked up): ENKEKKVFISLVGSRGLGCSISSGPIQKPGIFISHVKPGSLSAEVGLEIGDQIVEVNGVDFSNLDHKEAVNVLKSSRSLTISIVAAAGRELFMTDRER

CNKSR3, Q6P9H4, sequence (Q6P9H4 203-303): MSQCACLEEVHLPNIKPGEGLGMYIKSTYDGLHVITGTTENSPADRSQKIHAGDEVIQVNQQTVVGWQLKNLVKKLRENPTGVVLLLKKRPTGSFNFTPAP
MAGIX, Q9H6Y5, sequence (Q9H6Y5 118-211): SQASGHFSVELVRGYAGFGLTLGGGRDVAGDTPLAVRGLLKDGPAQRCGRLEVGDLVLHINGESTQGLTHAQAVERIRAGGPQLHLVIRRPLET
RIMS2, Q9UQ26, sequence (Q9UQ26 637-758): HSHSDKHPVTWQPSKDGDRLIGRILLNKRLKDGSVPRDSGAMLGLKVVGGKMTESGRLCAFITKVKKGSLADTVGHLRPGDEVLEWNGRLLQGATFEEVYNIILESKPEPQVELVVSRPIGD
CARD14, Q9BXL6, sequence (Q9BXL6 558-663): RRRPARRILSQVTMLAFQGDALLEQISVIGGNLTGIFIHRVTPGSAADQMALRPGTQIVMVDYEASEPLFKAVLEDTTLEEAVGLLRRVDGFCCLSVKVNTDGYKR
GRIP2_2, Q9C0E4, sequence (Q9C0E4 137-245): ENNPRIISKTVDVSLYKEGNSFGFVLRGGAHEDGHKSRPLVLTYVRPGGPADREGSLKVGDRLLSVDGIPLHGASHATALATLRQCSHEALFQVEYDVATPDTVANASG
PARD3B_3, Q8TEW8, sequence (Q8TEW8 490-594): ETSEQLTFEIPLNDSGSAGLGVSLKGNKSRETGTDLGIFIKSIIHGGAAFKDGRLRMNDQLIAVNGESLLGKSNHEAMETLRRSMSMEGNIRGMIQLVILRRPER
SCRIB_4, Q14160, sequence (Q14160 1095-1204): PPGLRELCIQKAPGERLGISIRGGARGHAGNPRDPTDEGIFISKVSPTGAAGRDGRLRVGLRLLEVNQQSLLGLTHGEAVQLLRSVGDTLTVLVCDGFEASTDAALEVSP

As for PSRDRKETSI [RALBP1, Q15311], the pKd entry in the assay with APBA3_2, O96018 is “below the threshold”; in the assay with CARD14, Q9BXL6 it was “below the threshold”; with CNKSR3, Q6P9H4, “below the threshold”; with GIPC1, O14908 it was 3.78; with GRIP2_2, Q9C0E4 it was 4.25; with MAGIX, Q9H6Y5 it was “below the threshold”. Further, the pKd result is on record as “below the threshold” with MLLT4, P55196; “below the threshold” with MPDZ_3, O75970; “below the threshold” with NHERF3_2, Q5T2W1; “below the threshold” with PARD3B_3, Q8TEW8; “below the threshold” with PDZD11, Q5EBL8; “below the threshold” with PDZD2_3, O15018. Moreover, the pKd entry in the assay with PDZD2_5, O15018 is reported as “below the threshold”; in the assay with PDZD4, Q76G19 it was “below the threshold”; with PDZD8, Q8NEN9, “below the threshold”; with PREX2_2, Q70Z35, “below the threshold”; with RIMS2, Q9UQ26, “below the threshold”; in the assay with SCRIB_4, Q14160, “below the threshold”. In addition, the pKd result is reported as “below the threshold” with SHANK3, Q9BYB0; “below the threshold” with TJP3_1, O95049; “below the threshold” in the assay with USH1C_1, Q9Y6N9; “below the threshold” with USH1C_2, Q9Y6N9.

On to SHSSKGETAV [FZD7, O75084], for which the pKd result with APBA3_2, O96018 is “below the threshold”; with CARD14, Q9BXL6 it was “below the threshold”; with CNKSR3, Q6P9H4, “below the threshold”; in the assay with GIPC1, O14908, 4.44; with GRIP2_2, Q9C0E4, 4.49; in the assay with MAGIX, Q9H6Y5 it was “below the threshold”. Also, the pKd entry with MLLT4, P55196 was “below the threshold”; with MPDZ_3, O75970, “below the threshold”; with NHERF3_2, Q5T2W1, “below the threshold”; with PARD3B_3, Q8TEW8, “below the threshold”; with PDZD11, Q5EBL8 it was “below the threshold”; with PDZD2_3, O15018, “below the threshold”. For the same molecule, the pKd entry with PDZD2_5, O15018 was “below the threshold”; with PDZD4, Q76G19, “below the threshold”; with PDZD8, Q8NEN9 it was “below the threshold”; with PREX2_2, Q70Z35, 4.3; with RIMS2, Q9UQ26, “below the threshold”; in the assay with SCRIB_4, Q14160, “below the threshold”. Further, the pKd entry in the assay with SHANK3, Q9BYB0 is listed as “below the threshold”; in the assay with TJP3_1, O95049 it was “below the threshold”; with USH1C_1, Q9Y6N9, “below the threshold”; with USH1C_2, Q9Y6N9, “below the threshold”.

The record behind these values is article PMC9482650, “Quantitative fragmentomics allow affinity mapping of interactomes” (Nature Communications, 2022).
